Source: patent US20190011465A1

Key:
human D-dimer (human) = human D-dimer (human) (UniProt P02671); assay: competitive inhibition ELISA: HRP-B4 pre-incubated with soluble antigen, then added to a D-dimer-coated plate
D monomer = D monomer (UniProt P02671); assay: as above

- Kd (human D-dimer (human)): 0.98 nM
- reactivity (D monomer): 5 µM
Substance: monoclonal antibody B4
